In this experiment the target is T1, Myc/His-tagged C20orf20 (Homo sapiens (Human), UniProt Q9NV56 1-204).
T1 construct: Expressed in transfected COS7, SW480, HEK293 or HEK293F cells from pcDNA3.1Myc/His-C20orf20; also called myc-tagged C20orf20; pcDNA3.1Myc/His-C20orf20; not shown: Myc/His tag from the pcDNA3.1Myc/His vector
As to the kind of experiment: reciprocal co-immunoprecipitation (anti-HA IP / anti-myc blot and anti-myc IP / anti-HA blot) from co-transfected COS7 cells. The procedure:
The entire coding region of p120 was amplified by RT-PCR and cloned into pCAGGS-HA vector. The primer sequences used for the amplification were 5′-[…]-3′ (SEQ ID NO.5) and 5′-[…]-3′ (SEQ ID NO.6). We transfected COS7 cells with pcDNA3.1Myc/His-C20orf20, pCAGGS-HA-p120 or their combination, and performed immunoprecipitation assay using anti-Myc or anti-HA antibody. Cells were washed with PBS and lysed in TNE buffer containing 150 mM NaCl, 0.5% NP40, 10 mM Tris-HCl (pH7.8), supplemented with a Protease Inhibitor Cocktail 3 (Roche). In a typical immunoprecipitation reaction, 400 μg of whole-cell extract was incubated with 1 μg of anti-Myc (Santa Cruz) or anti-HA antibody (Roche), and 20 μl of protein G Sepharose beads (Zymed) at 4° C. for 2 hr. Beads were washed four times in 1 ml of TNE buffer and proteins bound to the beads were eluted by boiling in Laemmli sample buffer. The precipitated protein was separated by SDS-PAGE and immunoblot analysis was carried out using with either rat anti-HA antibody or mouse anti-Myc antibody, respectively.

We go through one molecule from patent US20070254830A1 (UNIVERSITY OF TOKYO, published 2007).

T1 sequence (Q9NV56 whole entry): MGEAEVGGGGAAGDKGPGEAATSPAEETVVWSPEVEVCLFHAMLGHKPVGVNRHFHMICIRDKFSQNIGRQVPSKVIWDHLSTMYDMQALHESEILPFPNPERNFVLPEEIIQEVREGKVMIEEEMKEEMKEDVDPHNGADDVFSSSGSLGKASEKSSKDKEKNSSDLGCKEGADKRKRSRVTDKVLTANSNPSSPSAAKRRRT

B1: HA-tagged p120 (other)
chain: MRSGDQNWVSVSRAIKPFAEPGRPPDWFSQKHCASQYSELLETTETPKRKRGEKGEVVETVEDVIVRKLTAERVEELKKVIKETQERYRRLKRDAELIQAGHMDSRLDELCNDIATKKKLEEEEAEVKRKATDAAYQARQAVKTPPRRLPTVMVRSPIDSASPGGDYPLGDLTPTTMEEATSGVTPGTLPSTPVTSFPGIPDTLPPGSAPLEAPMTPVTDDSPQKKMLGQKATPPPSPLLSELLKKGSLLPTSPRLVNESEMAVASGHLNSTGVLLEVGGVLPMIHGGEIQQTPNTVAASPAASGAPTLSRLLEAGPTQFTTPLASFTTVASEPPVKLVPPPVESVSHATIVMMPALPAPSSAPAVSTTESVAPVSQPDNCVPMEAVGDPHTVTVSMDSSEISMIINSIKEECFRSGVAEAPVGSKAPSIDGKEELDLAEKMDIAVSYTGEELDFETVGDIIAIIEDKVDDHPEVLDVAAVEAALSFCEENDDPQSLPGPWEHPIQQERDKPVPLPAPEMTVKQERLDFEETENKGIHELVDIREPSAEIKVEPAEPEPVISGAEIVAGVVPATSMEPPELRSQDLDEELGSTAAGEIVEADVAIGKGDETPLTNVKTEASPESMLSPSHGSNPIEDPLEAETQHKFEMSDSLKEESGTIFGSQIKDAPGEDEEEDGVSEAASLEEPKEEDQGEGYLSEMDNEPPVSESDDGFSIHNATLQSHTLADSIPSSPASSQFSVCSEDQEAIQAQKIWKKAIMLVWRAAANHRYANVFLQPVTDDIAPGYHSIVQRPMDLSTIKKNIENGLIRSTAEFQRDIMLMFQNAVMYNSSDHDVYHMAVEMQRDVLEQIQQFLATQLIMQTSESGISAKSLRGRDSTRKQDASEKDSVPMGSPAFLLSLFDGGTRGRRCAIEADMKMKK
notes: expressed in transfected COS7, SW480, HEK293 or HEK293F cells; also called SMAP; not shown: HA tag from the pCAGGS-HA vector
With B1, the binding result is on record as “binds”.
